Earlier results in PMC6417862.

Target: muscle actin (Oryctolagus cuniculus) (UniProt P68135)

- Kd: < 300 nM
Substance: cofilin (from UniProt Q03048)
